From patent publication US20200216506A1 (CHILDREN S MEDICAL CENTER, published 2020) come the findings set out here.

One assay concerns the target NEMO (UniProt O88522 1-412). The experiment in a line: MyD88 co-immunoprecipitation from LPS-stimulated iBMDMs, western blot (FIG. 74A). From the text:
(§1) Data represent mean±SEM of triplicate wells. […] Data represent mean±SEM of triplicate wells.
For orientation: A western blot detects proteins with antibodies after separation by electrophoresis.

Another assay deals with T1, IKKβ (UniProt O88351 1-757).
T1 sequence (looked up): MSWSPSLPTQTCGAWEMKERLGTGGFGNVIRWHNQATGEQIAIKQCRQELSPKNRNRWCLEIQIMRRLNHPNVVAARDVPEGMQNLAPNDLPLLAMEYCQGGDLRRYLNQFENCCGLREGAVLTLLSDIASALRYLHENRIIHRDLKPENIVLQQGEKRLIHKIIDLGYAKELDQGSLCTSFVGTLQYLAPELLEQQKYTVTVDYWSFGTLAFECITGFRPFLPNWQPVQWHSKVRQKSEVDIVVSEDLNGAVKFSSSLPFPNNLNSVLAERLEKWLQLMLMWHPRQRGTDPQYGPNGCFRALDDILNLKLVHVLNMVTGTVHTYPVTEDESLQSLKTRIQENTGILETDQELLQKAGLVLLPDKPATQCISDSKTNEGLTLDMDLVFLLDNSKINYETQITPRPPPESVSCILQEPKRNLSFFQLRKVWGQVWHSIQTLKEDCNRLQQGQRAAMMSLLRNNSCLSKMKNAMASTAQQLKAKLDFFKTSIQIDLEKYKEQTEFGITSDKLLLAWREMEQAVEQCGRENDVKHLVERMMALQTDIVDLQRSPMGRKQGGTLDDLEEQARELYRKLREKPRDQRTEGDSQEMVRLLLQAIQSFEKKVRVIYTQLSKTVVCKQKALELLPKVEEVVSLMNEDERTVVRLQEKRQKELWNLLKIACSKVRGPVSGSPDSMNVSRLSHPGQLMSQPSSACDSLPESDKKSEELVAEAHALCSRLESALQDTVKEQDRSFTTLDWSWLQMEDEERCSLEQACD
The assay is described as above.
From the text: as §1

Sequence of NEMO (O88522 whole entry): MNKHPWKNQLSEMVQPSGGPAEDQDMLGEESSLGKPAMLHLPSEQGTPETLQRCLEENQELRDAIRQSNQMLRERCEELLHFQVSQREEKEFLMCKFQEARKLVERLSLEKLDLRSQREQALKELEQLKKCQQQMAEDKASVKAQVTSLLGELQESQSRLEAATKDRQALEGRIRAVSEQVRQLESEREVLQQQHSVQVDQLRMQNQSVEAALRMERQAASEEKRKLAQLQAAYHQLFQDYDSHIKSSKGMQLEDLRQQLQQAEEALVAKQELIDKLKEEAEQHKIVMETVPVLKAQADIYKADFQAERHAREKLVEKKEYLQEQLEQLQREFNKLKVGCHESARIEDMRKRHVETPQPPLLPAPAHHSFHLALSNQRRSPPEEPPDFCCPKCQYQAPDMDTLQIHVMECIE

B1: MyD88 (other, UniProt P22366 1-296, looked up)
chain: MSAGDPRVGSGSLDSFMFSIPLVALNVGVRRRLSLFLNPRTPVAADWTLLAEEMGFEYLEIRELETRPDPTRSLLDAWQGRSGASVGRLLELLALLDREDILKELKSRIEEDCQKYLGKQQNQESEKPLQVARVESSVPQTKELGGITTLDDPLGQTPELFDAFICYCPNDIEFVQEMIRQLEQTDYRLKLCVSDRDVLPGTCVWSIASELIEKRCRRMVVVVSDDYLQSKECDFQTKFALSLSPGVQQKRLIPIKYKAMKKDFPSILRFITICDYTNPCTKSWFWTRLAKALSLP
notes: Adaptor protein and core of the myddosome; also called endogenous MyD88; myeloid differentiation primary response gene 88
Take B1: the binding result with NEMO and with IKKβ was “no binding” each time.
